Columns and labels:
[1] = molecular target: PCNA (endogenous, in human cells and their extracts) (human) (UniProt P12004); assay: co-IP with anti-PCNA antibody from formaldehyde-crosslinked HaCaT cell extract, gel, Orbitrap MS
[2] = molecular target: MK2 (human) (UniProt P49137); assay: mock co-IP with anti-TOM20 antibody from crosslinked HaCaT cell extract, Orbitrap MS
[3] = molecular target: PACT (human) (UniProt O75569); assay: as above
[4] = molecular target: TAO1 (human) (UniProt Q7L7X3); assay: as above
[5] = molecular target: T1, PCNA labeled with a fluorescent molecule (UniProt P12004 1-261, labeled with a fluorescent molecule (dye and site not stated)); assay: microscale thermophoresis, fluorescently labelled PCNA, peptide titrated
T1 construct: also called proliferating cell nuclear antigen
Description: Microscale thermophoresis (MST) was used to determine the dissociation constant for various APIM containing peptides.
PCNA was labeled with a fluorescent molecule. The concentration of PCNA was kept constant, whereas dilutions of each APIM containing peptide were prepared (1:1).

PCNA (endogenous, in human cells and their extracts) (human), sequence (P12004 whole entry): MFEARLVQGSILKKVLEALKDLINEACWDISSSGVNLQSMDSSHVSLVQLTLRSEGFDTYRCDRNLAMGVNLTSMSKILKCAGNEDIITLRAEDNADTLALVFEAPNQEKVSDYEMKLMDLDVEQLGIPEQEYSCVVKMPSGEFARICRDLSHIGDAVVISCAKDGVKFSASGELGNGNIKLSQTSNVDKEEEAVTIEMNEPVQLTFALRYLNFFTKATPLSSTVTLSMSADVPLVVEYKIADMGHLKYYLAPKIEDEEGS
PACT (human), sequence (O75569 whole entry): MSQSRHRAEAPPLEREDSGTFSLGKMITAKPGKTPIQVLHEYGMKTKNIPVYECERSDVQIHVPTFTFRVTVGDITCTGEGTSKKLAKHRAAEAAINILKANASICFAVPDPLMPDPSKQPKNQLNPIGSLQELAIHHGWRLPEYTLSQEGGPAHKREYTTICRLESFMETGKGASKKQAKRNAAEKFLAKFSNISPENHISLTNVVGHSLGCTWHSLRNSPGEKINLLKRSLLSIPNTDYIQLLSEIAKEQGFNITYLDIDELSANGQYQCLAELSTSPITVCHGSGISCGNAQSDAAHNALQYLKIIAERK
MK2 (human), sequence (P49137 whole entry): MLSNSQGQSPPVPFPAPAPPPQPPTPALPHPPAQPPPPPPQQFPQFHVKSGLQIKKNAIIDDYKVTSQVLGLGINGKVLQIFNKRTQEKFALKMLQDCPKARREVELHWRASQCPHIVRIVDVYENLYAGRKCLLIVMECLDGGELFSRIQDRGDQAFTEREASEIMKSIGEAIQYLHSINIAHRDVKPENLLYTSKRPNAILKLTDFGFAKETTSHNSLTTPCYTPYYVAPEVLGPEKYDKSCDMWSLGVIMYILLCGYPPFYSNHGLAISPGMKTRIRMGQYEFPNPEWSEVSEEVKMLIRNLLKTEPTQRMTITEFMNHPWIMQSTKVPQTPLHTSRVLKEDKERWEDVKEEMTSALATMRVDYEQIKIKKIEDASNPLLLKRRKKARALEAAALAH
TAO1 (human), sequence (Q7L7X3 whole entry): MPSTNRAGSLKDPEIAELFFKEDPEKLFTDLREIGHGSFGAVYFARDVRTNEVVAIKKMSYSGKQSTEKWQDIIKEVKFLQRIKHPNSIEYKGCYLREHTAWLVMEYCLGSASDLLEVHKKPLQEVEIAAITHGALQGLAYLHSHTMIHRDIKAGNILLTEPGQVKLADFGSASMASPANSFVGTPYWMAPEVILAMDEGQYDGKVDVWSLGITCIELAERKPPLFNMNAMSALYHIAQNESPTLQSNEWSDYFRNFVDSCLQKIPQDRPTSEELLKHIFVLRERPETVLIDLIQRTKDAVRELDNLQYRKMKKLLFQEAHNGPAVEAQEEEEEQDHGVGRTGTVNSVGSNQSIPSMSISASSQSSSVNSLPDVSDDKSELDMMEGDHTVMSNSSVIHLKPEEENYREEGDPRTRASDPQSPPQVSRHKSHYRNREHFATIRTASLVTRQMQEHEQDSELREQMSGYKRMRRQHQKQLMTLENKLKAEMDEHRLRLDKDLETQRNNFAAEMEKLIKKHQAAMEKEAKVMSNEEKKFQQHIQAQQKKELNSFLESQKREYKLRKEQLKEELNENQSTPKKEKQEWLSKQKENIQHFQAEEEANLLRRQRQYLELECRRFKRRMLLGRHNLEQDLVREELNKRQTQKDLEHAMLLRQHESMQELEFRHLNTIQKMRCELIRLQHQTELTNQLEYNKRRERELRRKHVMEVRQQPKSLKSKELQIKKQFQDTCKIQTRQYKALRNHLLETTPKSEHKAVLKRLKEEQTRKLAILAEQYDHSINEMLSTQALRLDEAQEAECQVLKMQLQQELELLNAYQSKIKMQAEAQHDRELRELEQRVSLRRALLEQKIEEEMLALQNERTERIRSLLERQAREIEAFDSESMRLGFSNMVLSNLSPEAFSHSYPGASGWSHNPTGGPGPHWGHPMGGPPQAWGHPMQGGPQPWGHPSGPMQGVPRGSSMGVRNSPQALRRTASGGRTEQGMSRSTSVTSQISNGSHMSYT
T1 sequence (P12004 whole entry): as the sequence (P12004 whole entry) above

Row | Mascot score (PCNA pull down) [1] | Sequest score (PCNA pull down) [1] | Molecule | further results
1 | 27.6 | 6.33 | MK2 (from UniProt P49137 1-400) (enzyme) | 
2 | 23 | 2.06 | PACT (from UniProt O75569 1-313) | 
3 | 49.8 | 11.1 | TAO1 (from UniProt Q7L7X3 1-1001) (enzyme) | 
4 |  |  | TOM20 (from UniProt Q15388 1-145) | Mascot-score (PCNA pull down) [1]: 32.5
5 |  |  | mock antibody specific for TOM20 | Sequest score (mock anti-TOM20 pull down) [2]: 1.79; Mascot score (mock anti-TOM20 pull down) [3]: 25.1; Sequest score (mock anti-TOM20 pull down) [3]: 1.61; Sequest score (mock anti-TOM20 pull down) [4]: 2.09
6 |  |  | RRRRRRRRRRR (Cell penetrating peptide part alone, used as a control; also called R11 peptide; R11 (negative control)) [R11] | binding result [5]: no binding

Reference: patent publication US20160279193A1 (NORWEGIAN UNIVERSITY OF SCIENCE AND TECHNOLOGY, published 2016)
